Experimental data reported in US20070111222.

System: T1, fluorogenic peptide CAGSGSGPR-AMC (AMC=7-amino-4-methyl-coumarin)
T1 sequence: CAGSGSGPR

Substance: trypsin
- release of fluorescent AMC (cleavage of the immobilized fluorogenic peptide): Adding trypsin to these disks results in the release of fluorescent AMC
